Laboratory results as given in patent US20020102268A1.

Biological target: uncleaved bovine spleen PARP (poly(ADP-ribose) polymerase) (UniProt P18493)
UniProt P18493, sequence (P18493 2-1016): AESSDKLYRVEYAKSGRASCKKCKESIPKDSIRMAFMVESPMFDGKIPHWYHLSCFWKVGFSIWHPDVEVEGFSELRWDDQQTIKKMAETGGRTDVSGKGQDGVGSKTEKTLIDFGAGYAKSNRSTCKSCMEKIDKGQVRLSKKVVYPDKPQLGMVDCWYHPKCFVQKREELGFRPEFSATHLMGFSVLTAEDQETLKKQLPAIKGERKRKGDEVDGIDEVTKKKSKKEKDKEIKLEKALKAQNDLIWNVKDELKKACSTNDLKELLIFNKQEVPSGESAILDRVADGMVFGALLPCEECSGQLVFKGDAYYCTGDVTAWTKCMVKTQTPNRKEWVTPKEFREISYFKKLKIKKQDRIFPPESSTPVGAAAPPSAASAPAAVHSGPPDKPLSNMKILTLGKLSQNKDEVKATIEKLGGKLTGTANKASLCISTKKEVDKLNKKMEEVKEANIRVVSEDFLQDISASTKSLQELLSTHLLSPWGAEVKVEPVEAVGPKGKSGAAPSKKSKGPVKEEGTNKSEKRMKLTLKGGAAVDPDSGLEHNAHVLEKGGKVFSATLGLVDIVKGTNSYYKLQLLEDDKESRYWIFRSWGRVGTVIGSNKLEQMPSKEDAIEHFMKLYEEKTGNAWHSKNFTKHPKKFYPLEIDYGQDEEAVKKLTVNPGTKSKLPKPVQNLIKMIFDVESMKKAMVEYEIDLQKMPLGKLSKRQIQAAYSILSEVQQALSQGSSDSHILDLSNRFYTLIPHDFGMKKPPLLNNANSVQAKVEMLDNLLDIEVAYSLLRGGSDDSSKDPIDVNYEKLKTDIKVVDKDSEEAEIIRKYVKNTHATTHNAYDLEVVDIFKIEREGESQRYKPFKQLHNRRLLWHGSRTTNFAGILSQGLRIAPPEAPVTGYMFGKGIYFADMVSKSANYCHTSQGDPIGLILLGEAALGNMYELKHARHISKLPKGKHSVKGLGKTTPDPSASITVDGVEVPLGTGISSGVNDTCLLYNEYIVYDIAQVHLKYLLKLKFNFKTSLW

For recombinant CPP32 (caspase 3), the “cleavage of PARP, seen on Western blot” value was “two bands corresponding to uncleaved and cleaved PARP were visualized in the cleaved sample”.
